The term koff denotes the rate constant with which the complex falls apart. By Kd is commonly meant a measure of binding affinity in units of concentration. One may read the kon as the rate constant with which the complex forms.

Ends that are not written are not given here.

Common to all, as to conditions: both partners purified
Assay [1] addresses T1, Recombinant TGF-β receptor 2 protein (UniProt P37173 23-166).
T1 construct: TGF-β receptor 2, recombinant, 43.4 kDa, >95% by SDS-PAGE; By its catalogue number probably a human extracellular domain with a carrier tag, biotinylated (surmise); The TβR2 of the microplate assay (10358-H08B) is called human; also called TβR2; type 2 TGF-β receptor; source: bought: Sino Biological Inc. (10358-H03H-B)
Kind of assay: SPR; Biacore T200, 25 °C; TβR2 amine-coupled on a CM5 chip (50 µg/ml in 10 mM acetate pH 4.0); peptides in PBS injected at 60 µl/min, 180 s association, 540 s dissociation; 1:1 binding model. (In general: Surface plasmon resonance follows binding to a sensor surface in real time, without labels.)

For assay [2], the target named is T2, Recombinant TGF-β receptor 2 protein (10358-H03H-B; Sino Biological Inc.) (UniProt P37173 23-166).
T2 construct: TGF-β receptor 2, recombinant, 43.4 kDa; also called TβR2; type 2 TGF-β receptor; source: bought: Sino Biological Inc. (>95% as determined by SDS-PAGE)
Kind of assay: SPR; Biacore T200, 25 °C; TβR2 amine-coupled to a CM5 chip; peptides in PBS injected at 60 μl/min, 180 s injection, 540 s dissociation; 1:1 binding model.

Assay [3] deals with T3, Human TβR2 (10358-H08B; Sino Biological Inc.) (human, UniProt P37173 23-166).
T3 construct: TGF-β receptor 2, human; source: bought: Sino Biological Inc
Kind of assay: microplate-based fluorescence direct binding assay; TβR2 (10 μg/ml) or BSA coated on a 96-well microplate; FITC-peptide at 50 μg/ml, 1 h at room temperature, washed four times, fluorescence read.

T2 sequence (P37173 23-166): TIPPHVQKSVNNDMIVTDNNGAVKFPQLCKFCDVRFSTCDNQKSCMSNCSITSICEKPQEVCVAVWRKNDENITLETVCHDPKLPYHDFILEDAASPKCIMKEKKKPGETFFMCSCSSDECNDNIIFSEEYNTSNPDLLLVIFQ
T3 sequence (P37173 23-166): as above
T1 sequence (P37173 23-166): as above

B1: Klotho-derived peptide 1 (peptide, UniProt Q9UEF7 57-86, looked up)
peptide: FQGTFPDGFLWAVGSAAYQTEGGWQQHGKG
notes: Klotho, human, 30 amino acids from Phe57 to Gly86; 3.229 kDa; also called KP1; source: synthetic peptide (GenScript, >95% purity)
With B1, in assay [1], the dissociation rate constant (koff) worked out at 0.000578 s⁻¹.

B2: Klotho-derived peptide 1 (KP1) (peptide, UniProt Q9UEF7 57-86, looked up)
peptide: B1 peptide
notes: Klotho, human; peptide of 30 amino acids from Phe57 to Gly86; 3.229 kDa; the results give Phe57 to Gly86; source: synthetic peptide (GenScript, >95% purity)
Consider B2, for which, in assay [2], the Kd is 1.41 µM, the off-rate constant (koff) turned out to be 0.00058 s⁻¹ and the kon came out at 408 M⁻¹ s⁻¹.

B3: FITC-labeled KP1 (peptide, UniProt Q9UEF7 57-86, looked up)
peptide: B1 peptide
modifications: also: FITC label, position not given here
notes: Klotho, human; peptide of 30 amino acids from Phe57 to Gly86; also called FITC-KP1; source: synthetic peptide, labeled with fluorescein isothiocyanate (FITC)
With B3, the binding result in assay [3] is “binds”.

Source of the values: article PMC8782923, “A Klotho-derived peptide protects against kidney fibrosis by targeting TGF-β signaling” (Nature Communications, 2022).
